Target: T1, mouse Gpa33 in which human Exon III had been substituted (mouse; human, UniProt Q9JKA5 22-70; Q99795 71-139; Q9JKA5 140-319, limits assumed)
T1 sequence (looked up): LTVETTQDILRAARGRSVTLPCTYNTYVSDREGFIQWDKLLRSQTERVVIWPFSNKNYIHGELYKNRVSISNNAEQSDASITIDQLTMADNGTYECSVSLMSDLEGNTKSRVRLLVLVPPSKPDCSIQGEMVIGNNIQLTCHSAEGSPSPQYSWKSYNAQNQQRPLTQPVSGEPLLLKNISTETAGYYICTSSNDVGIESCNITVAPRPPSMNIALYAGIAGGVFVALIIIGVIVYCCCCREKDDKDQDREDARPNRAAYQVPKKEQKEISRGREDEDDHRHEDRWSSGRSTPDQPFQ
Assay: cell-based or functional assay

B1: anti-hGpa33/Rspo4 fusion protein (antibody, human IgG1, kappa)
heavy: EVQLLESGGGLVQPGGSLRLSCAASGFAFSTYDMSWVRQAPGKGLEWVATISSGGSYTYYLDSVKGRFTISRDSSKNTLYLQMNSLQAEDSAIYYCAPTTVVPFAYWGQGTLVTVSSASTKGPSVFPLAPSSKSTSGGTAALGCLVKDYFPEPVTVSWNSGALTSGVHTFPAVLQSSGLYSLSSVVTVPSSSLGTQTYICNVNHKPSNTKVDKKVEPKSCDKTHTCPPCPAPELLGGPSVFLFPPKPKDTLMISRTPEVTCVVVDVSHEDPEVKFNWYVDGVEVHNAKTKPREQYNSTYRVVSVLPVLHQDWLNGKEYKCKVSNKALPAPIEKTISKAKGQPREPQVYTLPPSREEMTKNQVSLTCLVKGFYPSDIAVEWESNGQPENNYKTTPPVLDSDGSFFLYSKLTVDKSRWQQGNVFSCSVMHEALHYHYTQKSLSLSPGKEAAAREAAAREAAAREAAARVGTGLGGNCTGCIICSEENGCSTCQQRLFLFIRREGIRQYGKCLHDCPPGYFGIRGQEVNRCKKCGATCESCFSQDFCIRCKRQFYLYKGKCLPTCPPGTLAHQNTRECQGE
light: DIQMTQSPSSLSVSVGDRVTITCKASQNVRTVVAWYQQKPGLAPKTLIYLASNRHTGVPSRFSGSGSGTDFTFTISSLQPEDIATYFCQQHWSYPLTFGQGTKVEVKRRTVAAPSVFIFPPSDEQLKSGTASVVCLLNNFYPREAKVQWKVDNALQSGNSQESVTEQDSKDSTYSLSSTLTLSKADYEKHKVYACEVTHQGLSSPVTKSFNRGEC
  difference in cell viability (ATP-driven luciferase cell viability assay), humanized Gpa33 organoids against wildtype organoids, at 0.2 nM fusion protein: 200 fold
  difference in cell viability (ATP-driven luciferase cell viability assay), humanized Gpa33 organoids against wildtype organoids, at 0.4 nM fusion protein: 25 fold

Reference: patent WO2018215614A1 (dated 2018)
